Test results from US10227388B2, “Peptides and combination of peptides for use in immunotherapy against non-small cell lung cancer and other cancers” (immatics biotechnologies GmbH, priority 2015, dated 2019).

Experiments:
CD8+ T cells = assay: In vitro immunogenicity: T-cell priming with artificial antigen presenting cells loaded with peptide/MHC complexes and anti-CD28 antibody, multimer readout; format: cell-based, human; details: for in vitro immunogenicity, donors: percentage of positive donors; for in vitro immunogenicity, wells: percentage of positive wells; for Wells positive [%]: HLA-A*02 restricted peptides, positive wells among evaluable
Description: In an aspect, the peptides are pre-screened for immunogenicity before being included in the warehouse. By way of example, and not limitation, the immunogenicity of the peptides included in the warehouse is determined by a method comprising in vitro T-cell priming through repeated stimulations of CD8+ T cells from healthy donors with artificial antigen presenting cells loaded with peptide/MHC complexes and anti-CD28 antibody.
In order to obtain information regarding the immunogenicity of the TUMAPs of the present invention, the inventors performed investigations using an in vitro T-cell priming assay based on repeated stimulations of CD8+ T cells with artificial antigen presenting cells (aAPCs) loaded with peptide/MHC complexes and anti-CD28 antibody.
In order to perform in vitro stimulations by artificial antigen presenting cells loaded with peptide-MHC complex (pMHC) and anti-CD28 antibody, the inventors first isolated CD8+ T cells from fresh HLA-A*02 leukapheresis products via positive selection using CD8 microbeads (Miltenyi Biotec, Bergisch-Gladbach, Germany) of healthy donors obtained from the University clinics Mannheim, Germany, after informed consent.
PBMCs and isolated CD8+ lymphocytes were incubated in T-cell medium (TCM) until use consisting of RPMI-Glutamax (Invitrogen, Karlsruhe, Germany) supplemented with 10% heat inactivated human AB serum (PAN-Biotech, Aidenbach, Germany), 100 U/ml Penicillin/100 μg/ml Streptomycin (Cambrex, Cologne, Germany), 1 mM sodium pyruvate (CC Pro, Oberdorla, Germany), 20 μg/ml Gentamycin (Cambrex). 2.5 ng/ml IL-7 (PromoCell, Heidelberg, Germany) and 10 U/ml IL-2 (Novartis Pharma, Nürnberg, Germany) were also added to the TCM at this step.
Generation of pMHC/anti-CD28 coated beads, T-cell stimulations and readout was performed in a highly defined in vitro system using four different pMHC molecules per stimulation condition and 8 different pMHC molecules per readout condition.
The purified co-stimulatory mouse IgG2a anti human CD28 Ab 9.3 (Jung et al., 1987) was chemically biotinylated using Sulfo-N-hydroxysuccinimidobiotin as recommended by the manufacturer (Perbio, Bonn, Germany). Beads used were 5.6 μm diameter streptavidin coated polystyrene particles (Bangs Laboratories, Illinois, USA).
pMHC used for positive and negative control stimulations were A*0201/MLA-001 (peptide […] (SEQ ID NO. 664) from modified Melan-A/MART-1) and A*0201/DDX5-001 ([…] from DDX5, SEQ ID NO. 665), respectively.
800.000 beads/200 μl were coated in 96-well plates in the presence of 4×12.5 ng different biotin-pMHC, washed and 600 ng biotin anti-CD28 were added subsequently in a volume of 200 μl. Stimulations were initiated in 96-well plates by co-incubating 1×10^6 CD8+ T cells with 2×10^5 washed coated beads in 200 μl TCM supplemented with 5 ng/ml IL-12 (PromoCell) for 3 days at 37° C. Half of the medium was then exchanged by fresh TCM supplemented with 80 U/ml IL-2 and incubating was continued for 4 days at 37° C. This stimulation cycle was performed for a total of three times. For the pMHC multimer readout using 8 different pMHC molecules per condition, a two-dimensional combinatorial coding approach was used as previously described (Andersen et al., 2012) with minor modifications encompassing coupling to 5 different fluorochromes. Finally, multimeric analyses were performed by staining the cells with Live/dead near IR dye (Invitrogen, Karlsruhe, Germany), CD8-FITC antibody clone SK1 (BD, Heidelberg, Germany) and fluorescent pMHC multimers. For analysis, a BD LSRII SORP cytometer equipped with appropriate lasers and filters was used. Peptide specific cells were calculated as percentage of total CD8+ cells. Evaluation of multimeric analysis was done using the FlowJo software (Tree Star, Oreg., USA). In vitro priming of specific multimer+CD8+ lymphocytes was detected by comparing to negative control stimulations. […]

HLA-A*02:01 = HLA-A*02:01 (Homo sapiens, UniProt P04439, D140Y/D185E/D98H/E176V/E277Q/G131W/G231S/I119V/I121R/I166T/I218V/L300P/L318F/N151K/N90K/P208A/P217A/Q86G/Q94H/R138H/R169H/T345S); assay: MHC binding assay (UV-ligand exchange, ELISA, peptide exchange yield); details: binding of HLA-class I restricted peptides to HLA-A*02:01
How it was run: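 Peptide–HLA-A*02:01 complexes made by UV-ligand exchange of a UV-cleavable peptide for the test peptide. Exchange yield measured by ELISA: 100-fold diluted monomers captured on streptavidin, 1 h at 37° C., detected with HRP anti-β2m and TMB, absorbance at 450 nm.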

Substance | Peptide exchange (MHC class I binding score, peptide exchange yield) (HLA-A*02:01) | in vitro immunogenicity, donors (CD8+ T cells) | in vitro immunogenicity, wells (CD8+ T cells) | Wells positive [%] (CD8+ T cells)
648 (LLWGNAIFL; listed as Homo sapiens) [compound 648] | – | +++ (50%-69% = +++) | ++ (20%-49% = ++) | –
199 (ALQDVPLSSV; listed as Homo sapiens) [compound 199] | ″+++″ (≥50% = +++) | – | – | ″+″ (<20% = +)
56 (KLYEGIPVLL; listed as Homo sapiens) [compound 56] | ″++++″ (≥75% = ++++) | – | – | ″+″ (<20% = +)
118 (KLIDNNINV; listed as Homo sapiens) [compound 118] | ″+++″ (≥50% = +++) | – | – | ″+″ (<20% = +)
36 (YVLEDLEVTV; listed as Homo sapiens) [compound 36] | ″++″ (≥20% = ++) | – | – | ″+″ (<20% = +)
659 (ILFPDIIARA; listed as Homo sapiens) [compound 659] | – | +++ (50%-69% = +++) | + (<20% = +) | –
319 (SLEPQIQPV; listed as Homo sapiens) [compound 319] | ″++″ (≥20% = ++) | – | – | ″+″ (<20% = +)
443 (GLWEIENNPTV; listed as Homo sapiens) [compound 443] | ″+++″ (≥50% = +++) | – | – | ″+″ (<20% = +)
662 (KIQEILTQV; listed as Homo sapiens) [compound 662] | – | +++ (50%-69% = +++) | + (<20% = +) | –
489 (KMWEELPEVV; listed as Homo sapiens) [compound 489] | ″+++″ (≥50% = +++) | – | – | ″+″ (<20% = +)
663 (KIQEMQHFL; listed as Homo sapiens) [compound 663] | – | +++ (50%-69% = +++) | + (<20% = +) | –
603 (FLIEPEHVNTV; listed as Homo sapiens) [compound 603] | ″++″ (≥20% = ++) | – | – | ″+″ (<20% = +)
652 (TLWYRAPEV; listed as Homo sapiens) [compound 652] | – | ++++ (> = 70% = ++++) | +++ (50%-69% = +++) | –
247 (VLLPNDLLEKV; listed as Homo sapiens) [compound 247] | ″+++″ (≥50% = +++) | – | – | ″+″ (<20% = +)
384 (ILFANPNIFV; listed as Homo sapiens) [compound 384] | ″+++″ (≥50% = +++) | – | – | ″+″ (<20% = +)
504 (GLSDGNPSL; listed as Homo sapiens) [compound 504] | ″++″ (≥20% = ++) | – | – | –
409 (LLDAMNYHL; listed as Homo sapiens) [compound 409] | ″++″ (≥20% = ++) | – | – | –
81 (FLFSQLQYL; listed as Homo sapiens) [compound 81] | ″++″ (≥20% = ++) | – | – | –
601 (SAFPFPVTV; listed as Homo sapiens) [compound 601] | ″+++″ (≥50% = +++) | – | – | –
157 (SLNDEVPEV; listed as Homo sapiens) [compound 157] | ″++″ (≥20% = ++) | – | – | –
31 (YLAPELFVNV; listed as Homo sapiens) [compound 31] | ″++″ (≥20% = ++) | – | – | –
328 (ALNDQVFEI; listed as Homo sapiens) [compound 328] | ″+++″ (≥50% = +++) | – | – | –
134 (YLQELIFSV; listed as Homo sapiens) [compound 134] | ″+++″ (≥50% = +++) | – | – | –
551 (KLYESLLPFA; listed as Homo sapiens) [compound 551] | ″+++″ (≥50% = +++) | – | – | –
219 (KLSDIGITV; listed as Homo sapiens) [compound 219] | ″+++″ (≥50% = +++) | – | – | –
200 (LLFGSVQEV; listed as Homo sapiens) [compound 200] | ″+++″ (≥50% = +++) | – | – | –
434 (KVSNSGITRV; listed as Homo sapiens) [compound 434] | ″++″ (≥20% = ++) | – | – | –
604 (SILDRDDIFV; listed as Homo sapiens) [compound 604] | ″+++″ (≥50% = +++) | – | – | –
67 (TLLAEALVTV; listed as Homo sapiens) [compound 67] | ″+++″ (≥50% = +++) | – | – | –

Continued, in another order:

Peptide exchange (MHC class I binding score, peptide exchange yield) (HLA-A*02:01) | Substance | in vitro immunogenicity, donors (CD8+ T cells) | in vitro immunogenicity, wells (CD8+ T cells) | Wells positive [%] (CD8+ T cells)
″+++″ (≥50% = +++) | 150 (RLWEEGEELEL; listed as Homo sapiens) [compound 150] | – | – | ″+″ (<20% = +)
″++++″ (≥75% = ++++) | 143 (LLLDITPEI; listed as Homo sapiens) [compound 143] | – | – | ″+″ (<20% = +)
″++++″ (≥75% = ++++) | 8 (FTLGNVVGMYL; listed as Homo sapiens) [compound 8] | – | – | ″+″ (<20% = +)
″++″ (≥20% = ++) | 141 (YLDFSNNRL; listed as Homo sapiens) [compound 141] | – | – | ″+″ (<20% = +)
″++″ (≥20% = ++) | 511 (FLDPYCSASV; listed as Homo sapiens) [compound 511] | – | – | ″+″ (<20% = +)
″+++″ (≥50% = +++) | 38 (FLLEDDIHVS; listed as Homo sapiens) [compound 38] | – | – | ″+″ (<20% = +)
″+++″ (≥50% = +++) | 113 (GLLPTPLFGV; listed as Homo sapiens) [compound 113] | – | – | ″+″ (<20% = +)
″++″ (≥20% = ++) | 499 (KIFDIDEAEEGV; listed as Homo sapiens) [compound 499] | – | – | ″+″ (<20% = +)
″+++″ (≥50% = +++) | 306 (ALVNVQIPL; listed as Homo sapiens) [compound 306] | – | – | –
″+++″ (≥50% = +++) | 103 (TLAEEVVAL; listed as Homo sapiens) [compound 103] | – | – | –
″+++″ (≥50% = +++) | 479 (SLFGNSGILENV; listed as Homo sapiens) [compound 479] | – | – | –
″+++″ (≥50% = +++) | 69 (FQLDPSSGVLVTV; listed as Homo sapiens) [compound 69] | – | – | –
″+++″ (≥50% = +++) | 216 (NLWEDPYYL; listed as Homo sapiens) [compound 216] | – | – | –
